Experimental data as given in the Immune Epitope Database (IEDB).

Tests used:
[1] = target: HLA-A*02:03; test: IEDB peptide-MHC binding, purified MHC/competitive/radioactivity; filed as Kd, often an IC50 or EC50 that approximates it; ≥ and ≤ were set here for values at or beyond the usual limits of such assays
[2] = target: HLA-A*02:17; test: as above
[3] = target: HLA-A*02:01; test: as above
[4] = target: HLA-A*30:01; test: as above; settings: source organism: Vaccinia virus WR
[5] = target: HLA-B*15:01; test: as above; settings: source organism: Vaccinia virus WR
[6] = target: HLA-B*15:03; test: as above; settings: source organism: Vaccinia virus WR
[7] = target: HLA-A*32:01; test: as above; settings: source organism: Vaccinia virus WR
[8] = target: HLA-B*08:01; test: as above; settings: source organism: Vaccinia virus WR
[9] = target: HLA-A*11:01; test: IEDB peptide-MHC binding, purified MHC/competitive/fluorescence; ≥ and ≤ were set here for values at or beyond the usual limits of such assays
[10] = target: HLA-A*03:01; test: as above
[11] = target: HLA-A*02:01; test: as above; settings: source organism: Zaire ebolavirus
[12] = target: HLA-A*24:02; test: IEDB peptide-MHC binding, purified MHC/competitive/fluorescence; filed as Kd, often an IC50 or EC50 that approximates it; ≥ and ≤ were set here for values at or beyond the usual limits of such assays
[13] = target: HLA-B*44:03; test: IEDB peptide-MHC binding, purified MHC/competitive/radioactivity; filed as Kd, often an IC50 or EC50 that approximates it; ≥ and ≤ were set here for values at or beyond the usual limits of such assays; settings: source organism: Dengue virus 1 Brazil/97-11/1997
[14] = target: HLA-B*45:06; test: IEDB peptide-MHC binding, purified MHC/competitive/fluorescence; filed as Kd, often an IC50 or EC50 that approximates it; ≥ and ≤ were set here for values at or beyond the usual limits of such assays
[15] = target: HLA-B*15:42; test: as above
[16] = target: HLA-B*83:01; test: as above
[17] = target: HLA-B*44:02; test: IEDB peptide-MHC binding, purified MHC/direct/fluorescence; filed as Kd, often an IC50 or EC50 that approximates it; ≥ and ≤ were set here for values at or beyond the usual limits of such assays; settings: source organism: Dengue virus 1 Singapore/S275/1990
[18] = target: HLA-B*51:01; test: IEDB peptide-MHC binding, purified MHC/competitive/fluorescence; filed as Kd, often an IC50 or EC50 that approximates it; ≥ and ≤ were set here for values at or beyond the usual limits of such assays; settings: source organism: Yersinia pestis Nepal516
[19] = target: HLA-B*39:01; test: as above
[20] = target: HLA-B*07:02; test: as above
[21] = target: HLA-B*35:01; test: as above
[22] = target: HLA-B*15:01; test: IEDB peptide-MHC binding, purified MHC/competitive/fluorescence; ≥ and ≤ were set here for values at or beyond the usual limits of such assays; settings: source organism: Zaire ebolavirus
[23] = target: HLA-A*24:02; test: as above; settings: source organism: Zaire ebolavirus
[24] = target: HLA-A*02:03; test: IEDB peptide-MHC binding, purified MHC/competitive/fluorescence; filed as Kd, often an IC50 or EC50 that approximates it; ≥ and ≤ were set here for values at or beyond the usual limits of such assays; settings: source organism: Giardia intestinalis
[25] = target: HLA-B*57:01; test: IEDB peptide-MHC binding, purified MHC/direct/fluorescence; filed as Kd, often an IC50 or EC50 that approximates it; ≥ and ≤ were set here for values at or beyond the usual limits of such assays; settings: source organism: Giardia intestinalis
[26] = target: HLA-B*27:05; test: as above; settings: source organism: Giardia intestinalis
[27] = target: HLA-A*11:01; test: as above; settings: source organism: Giardia intestinalis
[28] = target: HLA-A*01:01; test: as above; settings: source organism: Giardia intestinalis
[29] = target: HLA-A*68:02; test: as above; settings: source organism: Giardia intestinalis
[30] = target: HLA-B*07:02; test: as above; settings: source organism: Giardia intestinalis
[31] = target: HLA-B*58:01; test: as above; settings: source organism: Giardia intestinalis
[32] = target: HLA-B*18:01; test: as above; settings: source organism: Giardia intestinalis
[33] = target: HLA-B*40:01; test: as above; settings: source organism: Giardia intestinalis
[34] = target: HLA-A*31:01; test: as above; settings: source organism: Giardia intestinalis
[35] = target: HLA-A*02:01; test: as above; settings: source organism: Giardia intestinalis
[36] = target: HLA-A*26:01; test: as above; settings: source organism: Giardia lamblia ATCC 50803
[37] = target: HLA-A*69:01; test: as above; settings: source organism: Giardia intestinalis
[38] = target: HLA-B*48:01; test: as above; settings: source organism: Giardia intestinalis
[39] = target: HLA-A*11:01; test: IEDB peptide-MHC binding, purified MHC/competitive/fluorescence; filed as Kd, often an IC50 or EC50 that approximates it; ≥ and ≤ were set here for values at or beyond the usual limits of such assays; settings: source organism: Homo sapiens
[40] = target: HLA-B*15:01; test: IEDB peptide-MHC binding, purified MHC/direct/fluorescence; filed as Kd, often an IC50 or EC50 that approximates it; ≥ and ≤ were set here for values at or beyond the usual limits of such assays; settings: source organism: Yellow fever virus 17D
[41] = target: HLA-B*46:01; test: as above; settings: source organism: Yellow fever virus 17D
[42] = target: HLA-A*31:01; test: IEDB peptide-MHC binding, purified MHC/competitive/fluorescence; filed as Kd, often an IC50 or EC50 that approximates it; ≥ and ≤ were set here for values at or beyond the usual limits of such assays; settings: source organism: Salmonella enterica subsp. enterica serovar Typhimurium str. LT2
[43] = source organism: Dengue virus 3 China/80-2/1980
[44] = source organism: Vaccinia virus
[45] = source organism: Zaire ebolavirus
[46] = source organism: Influenza A virus H3N2
[47] = source organism: Dengue virus 1 Singapore/S275/1990
[48] = source organism: dengue virus type 1
[49] = source organism: Yersinia pestis Nepal516
[50] = source organism: Salmonella enterica subsp. enterica serovar Typhi
[51] = source organism: Mycobacterium tuberculosis C
[52] = source organism: Yellow fever virus
[53] = source organism: Dengue virus 2 Thailand/NGS-C/1944
[54] = source organism: Sudan ebolavirus

ALFSGVSWI
Kd ([1]; source organism: Dengue virus 3 Singapore/8120/1995): 1.58 nM | Kd [2, 43]: 483 nM | Kd [3, 43]: 0.51 nM

RNKLSYRNK
Kd [4]: 63.9 nM | Kd [5]: ≥ 29500 nM | Kd [6]: 16400 nM | Kd [7]: ≥ 44000 nM | Kd [8]: ≥ 61500 nM | IC50 [9, 44]: ≥ 90400 nM | IC50 [10, 44]: 45100 nM

KLSSTNQLR
IC50 [9, 45]: 2460 nM | IC50 [11]: ≥ 196000 nM | IC50 [10, 45]: 6870 nM

LYNKMEFEPF
Kd [12, 46]: 3.3 nM

KLLTKPWDV
Kd ([2]; source organism: Dengue virus 4 Philippines/H241/1956): 379 nM

SKSMRDQRK
IC50 ([9]; source organism: Variola virus): 21100 nM | IC50 ([10]; source organism: Variola virus): ≥ 246000 nM

FLAHAIGTSI
Kd ([1]; source organism: Dengue virus 1 Brazil/97-11/1997): 46.7 nM | Kd [2, 47]: 1.85 nM | Kd [3, 47]: 8.19 nM

SEMGANFRA
Kd [13]: 48.9 nM | Kd [14, 48]: ≥ 5000 nM | Kd [15, 48]: ≥ 5000 nM | Kd [16, 48]: ≥ 5000 nM | Kd [17]: ≥ 37700 nM

IYLNEVNTF
Kd ([12]; source organism: Vibrio splendidus 12B01): ≤ 0.1 nM

YYLLFYPTI
Kd ([12]; source organism: Bacillus thuringiensis str. Al Hakam): ≤ 0.1 nM

FPVAMLSCL
Kd [18]: 186 nM | Kd [19, 49]: 18.5 nM | Kd [20, 49]: 15.7 nM | Kd [21, 49]: ≤ 0.1 nM

QLQQYAESR
IC50 [9, 45]: 18700 nM | IC50 [10, 45]: ≥ 240000 nM

RARIKTRLFTI
Kd ([20]; source organism: Influenza A virus (A/X-31(H3N2))): 733 nM

ATTTSPQNH
IC50 [9, 45]: 1910 nM | IC50 [10, 45]: 37700 nM

SFFYRYGF
Kd ([12]; source organism: Influenza A virus (A/Fort Monmouth/1/1947-mouse adapted(H1N1))): 35.7 nM

WPDVFSVSV
Kd [19, 50]: 3.8 nM | Kd [20, 50]: 65.7 nM | Kd [21, 50]: 1.3 nM

YILWENNIKL
Kd [2, 43]: 10.1 nM | Kd [3, 43]: 5.85 nM

ILMNFHQKK
IC50 [22]: 69400 nM | IC50 [9, 45]: 163 nM | IC50 [23]: 9840 nM | IC50 [11]: 2470 nM | IC50 [10, 45]: 808 nM

LEKWNLGII
Kd [24]: 4370 nM | Kd [25]: ≥ 20000 nM | Kd [26]: ≥ 20000 nM | Kd [27]: ≥ 20000 nM | Kd [28]: ≥ 20000 nM | Kd [29]: ≥ 20000 nM | Kd [30]: ≥ 20000 nM | Kd [31]: ≥ 20000 nM | Kd [32]: 1140 nM | Kd [33]: 599 nM | Kd [34]: ≥ 20000 nM | Kd [35]: ≥ 20000 nM | Kd [36]: ≥ 20000 nM | Kd [37]: ≥ 20000 nM | Kd [38]: ≥ 20000 nM

YLDDRNTFR
Kd [39]: ≥ 20000 nM

TLAVFLLLI
Kd [2, 47]: 1840 nM | Kd [3, 47]: 2590 nM

SARRRHLVF
Kd [14, 51]: ≥ 5000 nM | Kd [15, 51]: ≥ 5000 nM | Kd [16, 51]: ≥ 5000 nM

RMKWMMAM
Kd [20, 46]: 3250 nM

AEMGANLCV
Kd [14, 52]: ≥ 5000 nM | Kd [15, 52]: ≥ 5000 nM | Kd [16, 52]: ≥ 5000 nM | Kd [40]: ≥ 20000 nM | Kd [41]: ≥ 20000 nM

LLVLCVTQV
Kd ([1]; source organism: Dengue virus 2 Peru/IQT2913/1996): 38.4 nM | Kd [2, 53]: ≥ 5000 nM | Kd [3, 53]: 64.9 nM

MVGIVHFNK
Kd ([12]; source organism: Salmonella enterica subsp. enterica serovar Typhimurium str. LT2): 42.9 nM | Kd [42]: 90 nM

AQHSTTLFK
IC50 [9, 54]: 994 nM | IC50 [10, 54]: 30000 nM
